Source: patent US20210292396A1 (INTERNATIONAL AIDS VACCINE INITIATIVE, published 2021)

Tests used:
Assay in all cases: cell-based or functional assay
[1] = target: HIV Env of isolate T251-18 (HIV)
[2] = target: HIV Env of isolate T255-34 (HIV)
[3] = target: HIV Env of isolate 235-47 (HIV)
[4] = target: HIV Env of isolate 620345.c01 (HIV)
[5] = target: HIV Env of isolate C1080.c03 (HIV)
[6] = target: HIV Env of isolate C3347.c11 (HIV)
[7] = target: HIV Env of isolate C4118.c09 (HIV)
[8] = target: HIV Env of isolate X1254_c3 (HIV)
[9] = target: HIV Env of isolate A07412M1.vrc12 (HIV)
[10] = target: HIV Env of isolate 6811.v7.c18 (HIV)
[11] = target: HIV Env of isolate 3301.v1.c24 (HIV)
[12] = target: HIV Env of isolate 3103.v3.c10 (HIV)
[13] = target: HIV Env of isolate SC422661.8 (HIV)
[14] = target: HIV Env of isolate TRJO4551.58 (HIV)
[15] = target: HIV Env of isolate WITO4160.33 (HIV)
[16] = target: HIV Env of isolate CAAN5342.A2 (HIV)
[17] = target: HIV Env of isolate 1006_11_C3_1601 (HIV)
[18] = target: HIV Env of isolate 1056_10_TA11_1826 (HIV)
[19] = target: HIV Env of isolate 1012_11_TC21_3257 (HIV)
[20] = target: HIV Env of isolate 6244_13_B5_4576 (HIV)
[21] = target: HIV Env of isolate SC05_8C11_2344 (HIV)
[22] = target: HIV Env of isolate Du172.17 (HIV)
[23] = target: HIV Env of isolate Du422.1 (HIV)
[24] = target: HIV Env of isolate ZM233M.PB6 (HIV)
[25] = target: HIV Env of isolate ZM249M.PL1 (HIV)
[26] = target: HIV Env of isolate ZM53M.PB12 (HIV)
[27] = target: HIV Env of isolate CAP45.2.00.G3 (HIV)
[28] = target: HIV Env of isolate HIV-0013095-2.11 (HIV)
[29] = target: HIV Env of isolate HIV-16055-2.3 (HIV)
[30] = target: HIV Env of isolate HIV-16845-2.22 (HIV)
[31] = target: HIV Env of isolate Ce0393_C3 (HIV)
[32] = target: HIV Env of isolate Ce1176_A3 (HIV)
[33] = target: HIV Env of isolate Ce2010_F5 (HIV)
[34] = target: HIV Env of isolate Ce2060_G9 (HIV)
[35] = target: HIV Env of isolate 246F_C1G (HIV)
[36] = target: HIV Env of isolate ZM247v1(Rev-) (HIV)
[37] = target: HIV Env of isolate 1394C9G1(Rev-) (HIV)
HIV Env of isolate CNE20 = HIV Env of isolate CNE20 (HIV)
HIV Env of isolate CNE21 = HIV Env of isolate CNE21 (HIV)
HIV Env of isolate CNE17 = HIV Env of isolate CNE17 (HIV)
HIV Env of isolate CNE52 = HIV Env of isolate CNE52 (HIV)
HIV Env of isolate CNE53 = HIV Env of isolate CNE53 (HIV)
[38] = target: HIV Env of isolate MS208.A1 (HIV)
[39] = target: HIV Env of isolate 0330.v4.c3 (HIV)
[40] = target: HIV Env of isolate 191955_A11 (HIV)

B1: PGT-121 (antibody, V domains shown)
VH: QMQLQESGPGLVKPSETLSLTCSVSGASISDSYWSWIRRSPGKGLEWIGYVHKSGDTNYSPSLKSRVNLSLDTSKNQVSLSLVAATAADSGKYYCARTLHGRRIYGIVAFNEWFTYFYMDVWGNGTQVTVSS
VL: SDISVAPGETARISCGEKSLGSRAVQWYQHRAGQAPSLIIYNNQDRPSGIPERFSGSPDSPFGTTATLTITSVEAGDEADYYCHIWDSRVPTKWVFGGGTTLTVLG
neutralization IC50 [1]: 29000 ng/mL | neutralization IC50 [2]: 18700 ng/mL | neutralization IC50 [3]: 137 ng/mL | neutralization IC50 [4]: > 50000 ng/mL | neutralization IC50 [5]: > 50000 ng/mL | neutralization IC50 [6]: > 50000 ng/mL | neutralization IC50 [7]: > 50000 ng/mL | neutralization IC50 [8]: 14 ng/mL | neutralization IC50 [9]: 9 ng/mL | neutralization IC50 [10]: 1 ng/mL | neutralization IC50 [11]: 8 ng/mL | neutralization IC50 [12]: 9 ng/mL | neutralization IC50 [13]: 38 ng/mL | neutralization IC50 [14]: 1310 ng/mL | neutralization IC50 [15]: 334 ng/mL | neutralization IC50 [16]: 7 ng/mL | neutralization IC50 [17]: 2 ng/mL | neutralization IC50 [18]: 4 ng/mL | neutralization IC50 [19]: 3 ng/mL | neutralization IC50 [20]: 61 ng/mL | neutralization IC50 [21]: 19 ng/mL | neutralization IC50 [22]: 33 ng/mL | neutralization IC50 [23]: 39 ng/mL | neutralization IC50 [24]: 3690 ng/mL | neutralization IC50 [25]: > 50000 ng/mL | neutralization IC50 [26]: 1 ng/mL | neutralization IC50 [27]: 1630 ng/mL | neutralization IC50 [28]: > 50000 ng/mL | neutralization IC50 [29]: 153 ng/mL | neutralization IC50 [30]: 3970 ng/mL | neutralization IC50 [31]: > 50000 ng/mL | neutralization IC50 [32]: 13 ng/mL | neutralization IC50 [33]: > 50000 ng/mL | neutralization IC50 [34]: > 50000 ng/mL | neutralization IC50 [35]: 41 ng/mL | neutralization IC50 [36]: 28 ng/mL | neutralization IC50 [37]: 264 ng/mL | neutralization IC50 (HIV Env of isolate CNE20): 1 ng/mL | neutralization IC50 (HIV Env of isolate CNE21): 7 ng/mL | neutralization IC50 (HIV Env of isolate CNE17): 7600 ng/mL | neutralization IC50 (HIV Env of isolate CNE52): 2050 ng/mL | neutralization IC50 (HIV Env of isolate CNE53): 7 ng/mL | neutralization IC50 [38]: > 50000 ng/mL | neutralization IC50 [39]: 50 ng/mL | neutralization IC50 [40]: > 50000 ng/mL

B2: ePGT121.15.H1.L1 (antibody, V domains shown)
VH: QMQLQESGPGLVKPGETLSLTCSVSGASISSSYWSWLRETPGKGLEWIGYTHHSGDTNYAPSLKSRVHLGLHPSKNQVSLSLTSVTAADTAVYYCARTLHGRRIYGVVAFNEWFTYFYWEVWGNGTQVTVSS
VL: SDISVAPGETVRISCGGESIGSRAVQWYQHRAGQAPKLIIYNNQDRPPGIPERFSGSPDIDFGTTATLTITNVEAGDEATYYCHIWDSRRPTNWVFGGGTTLTVL
neutralization IC50 [1]: 5.5 ng/mL | neutralization IC50 [2]: 22.1 ng/mL | neutralization IC50 [3]: 1.9 ng/mL | neutralization IC50 [4]: > 50000 ng/mL | neutralization IC50 [5]: > 50000 ng/mL | neutralization IC50 [6]: > 50000 ng/mL | neutralization IC50 [7]: > 50000 ng/mL | neutralization IC50 [8]: 1.4 ng/mL | neutralization IC50 [9]: 2.2 ng/mL | neutralization IC50 [10]: 1.2 ng/mL | neutralization IC50 [11]: 2.9 ng/mL | neutralization IC50 [12]: 1.7 ng/mL | neutralization IC50 [13]: 0.5 ng/mL | neutralization IC50 [14]: 0.5 ng/mL | neutralization IC50 [15]: 1.1 ng/mL | neutralization IC50 [16]: 0.2 ng/mL | neutralization IC50 [17]: 0.3 ng/mL | neutralization IC50 [18]: 0.1 ng/mL | neutralization IC50 [19]: 0.9 ng/mL | neutralization IC50 [20]: 3.7 ng/mL | neutralization IC50 [21]: 0.9 ng/mL | neutralization IC50 [22]: 0.2 ng/mL | neutralization IC50 [23]: 0.7 ng/mL | neutralization IC50 [24]: 12.4 ng/mL | neutralization IC50 [25]: 2.4 ng/mL | neutralization IC50 [26]: 0.6 ng/mL | neutralization IC50 [27]: 5020 ng/mL | neutralization IC50 [28]: 0.1 ng/mL | neutralization IC50 [29]: 0.3 ng/mL | neutralization IC50 [30]: 7.2 ng/mL | neutralization IC50 [31]: > 50000 ng/mL | neutralization IC50 [32]: 0.4 ng/mL | neutralization IC50 [33]: > 50000 ng/mL | neutralization IC50 [34]: > 50000 ng/mL | neutralization IC50 [35]: 1.3 ng/mL | neutralization IC50 [36]: 0.3 ng/mL | neutralization IC50 [37]: 0.4 ng/mL | neutralization IC50 (HIV Env of isolate CNE20): 0.3 ng/mL | neutralization IC50 (HIV Env of isolate CNE21): 0.1 ng/mL | neutralization IC50 (HIV Env of isolate CNE17): 3.7 ng/mL | neutralization IC50 (HIV Env of isolate CNE52): 20.3 ng/mL | neutralization IC50 (HIV Env of isolate CNE53): 1 ng/mL | neutralization IC50 [38]: > 50000 ng/mL | neutralization IC50 [39]: 1.5 ng/mL | neutralization IC50 [40]: > 50000 ng/mL
